Reference: patent US20220064314A1 (QLSF BIOTHERAPEUTICS, published 2022)
Where a chain is given by its changes, count along the chain named.

T1: mouse 4-1BB on HEK293 cells (mouse, UniProt P20334 24-256)
T1 construct: whole, on cells; also called Mouse 4-1BB transfected HEK293 cells
T1 sequence (looked up): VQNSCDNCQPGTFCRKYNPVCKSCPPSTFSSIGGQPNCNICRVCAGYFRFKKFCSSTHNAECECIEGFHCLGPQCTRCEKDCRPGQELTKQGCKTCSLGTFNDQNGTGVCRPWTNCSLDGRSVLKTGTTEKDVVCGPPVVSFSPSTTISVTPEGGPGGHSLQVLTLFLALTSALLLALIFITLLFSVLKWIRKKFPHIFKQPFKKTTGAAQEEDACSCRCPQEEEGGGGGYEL

B1: huF1.1.G2.2.4 (antibody, human IgG2, kappa, V domains shown)
VH: QVQLVQSGAEVKKPGASVKVSCKASGYTFTFYTMHWLRQAPGQGLEWIGYINPSSGYTNYNQKFTDRATLTADTSTSTAYMELSSLRSEDTAVYYCARSDGSSSKWYFDVWGQGTTVTVSS
VL: EIVLTQSPDFQSATPKEKVTITCRASSSVSYIHWYQQKPGSSPKAWISATSNLASGVPSRFSGSGSGTSYTLTINRVEAEDAATYYCQQWSSNPFTFGQGTKLEIKR
notes: also called huF1.1.2.4
B2: huF1.1.G2.4.4 (antibody, human IgG2, kappa, V domains shown)
VH: B1 VH with V20M, R38K, T74K
VL: B1 VL
notes: also called huF1.1.4.4
B3: G28.21 (antibody, V domains shown)
VH: EVQLQQSGAELVRPGASVKLSCTASGFNIKDYYIHWVNQRPEQGLEWIGRIDPEDGDIAYAPKFQDKATLTVDTSSNTAYLHIIGLTSEDTAVYYCTTGNYYAMDFWGQGTSVTVSS
VL: QIVLTQSPAIMSASLGERVTMTCTASSSVSSSYLHWYQQKPGSSPKLWIYSTSNLASGVPARFSGSGSGTSYSLTISSMEAEDAATYYCHQYHRSPPTFGSGTKLEIK
notes: also called anti-4-1BB mAb G28.21
B4: cAB 137QL.G28.21.G2 (antibody, human IgG2, V domains shown)
VH: B3 VH
VL: B3 VL
notes: Chimeric antibody; also called Chimeric G28.21; cAb G28.21.G2
B5: F1.1 (antibody, V domains shown)
VH: QVQLQQSGAELARPGASVKMSCKASGYTFTFYTMHWLKQRPGQGLEWIGYINPSSGYTNYNQKFTDKATLTADKSSSTAYMQLSSLTSEDSAVYYCARSDGSSSKWYFDVWGTGTTVTVSS
VL: QIVLSQSPTILSASPGEKVTMTCRASSSVSYIHWYQQKPGSSPKAWISATSNLASGVPARFSGSGSGTSYSLTISRVEAEDAATYYCQQWSSNPFTFGSGTKLEIK
notes: The flow method detects with anti-human IgG; also called anti-4-1BB mAb F1.1
B6: cAb 137QL.F1.1.G2 (antibody, human IgG2, V domains shown)
VH: B5 VH
VL: B5 VL
notes: Chimeric antibody; also called Chimeric F1.1; cAb F1.1.G2
B7: huG28.21.G2.1.4 (antibody, human IgG2, kappa, V domains shown)
VH: EVQLVQSGAEVKKPGATVKISCKASGFNIKDYYIHWVNQAPGKGLEWIGRIDPEDGDIAYAPKFQDRVTLTVDTSTDTAYLELSSLRSEDTAVYYCTTGNYYAMDFWGQGTTVTVSS
VL: QIVLTQSPATLSASPGERVTLSCTASSSVSSSYLHWYQQKPGSSPKLWIYSTSNLASGVPARFSGSGPGTSYTLTISSMEPEDAATYYCHQYHRSPPTFGQGTKLEIKR
notes: also called huG28.21.1.4
B8: huG28.21.G2.4.4 (antibody, human IgG2, kappa, V domains shown)
VH: B7 VH with V5Q, I20L, A40R, K43Q, V68A, D77N
VL: B7 VL
notes: also called huG28.21.4.4

Experiments:
[1] = target: T2, human 4-1BB on cells (human, UniProt Q07011 24-255); experiment: cell-based or functional assay
[2] = target: T3, 4-1BB (CD137), antigen of the Octet kinetics (UniProt Q07011 24-186, limits assumed); experiment: Octet (BLI), mono-valent binding kinetics
T3 construct: also called TNFRSF9

[3] = target: T4, cyno 4-1BB on HEK293 cells (cyno, UniProt A9YYE7 24-254); experiment: flow cytometry, HEK293 cells over-expressing cyno 4-1BB
T4 construct: whole, on cells; also called Cynomolgous 4-1BB; HEK293 cells over-expressing cyno 4-1BB
Experimental: (§1) Human/Cyno/Mouse 4-1BB transfected HEK293 cells or PHA-P stimulated PBMCs were incubated with serial diluted anti-4-1BB antibodies in FACS buffer (DPBS+ 2% FBS+ 0.05% sodium azide) followed by AF647-labeled F(ab′)2 goat anti-human IgG and 7-AAD. In addition, PBMCs were incubated with FITC Mouse anti-human CD3. Stained 4-1BB expressing HEK293 samples were analyzed using FlowJo by gating on FSC/SSC, followed by live/dead cell gating, and human/Cynomolgous/Mouse 4-1BB+ cells (MFI Geo Mean denoted). Stained Lymphocyte samples were analyzed using FlowJo by gating on FSC/SSC, followed by live/dead cell gating, and CD3+ cells with 4-1BB positives. (Table 2 and Table 3)

[4] = target: T2, human 4-1BB on cells; experiment: flow cytometry, activated (PHA-P stimulated) human T cells
Experimental: as §1

[5] = target: T2, human 4-1BB on cells; experiment: cell-based or functional assay; remark: listed apart in the source
[6] = target: T2, human 4-1BB on cells; experiment: flow cytometry, HEK293 cells over-expressing human 4-1BB
Experimental: as §1

[7] = target: T1, mouse 4-1BB on HEK293 cells; experiment: flow cytometry, mouse 4-1BB transfected HEK293 cells
Experimental: as §1

T2 sequence (Q07011 24-255): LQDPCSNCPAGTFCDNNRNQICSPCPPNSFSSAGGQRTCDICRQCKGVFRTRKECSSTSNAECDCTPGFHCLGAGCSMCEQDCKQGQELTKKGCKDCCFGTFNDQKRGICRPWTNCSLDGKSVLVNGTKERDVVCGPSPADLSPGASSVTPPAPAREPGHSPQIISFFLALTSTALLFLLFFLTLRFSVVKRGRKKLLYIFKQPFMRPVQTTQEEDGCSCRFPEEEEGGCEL
T4 sequence (A9YYE7 entry or part of it): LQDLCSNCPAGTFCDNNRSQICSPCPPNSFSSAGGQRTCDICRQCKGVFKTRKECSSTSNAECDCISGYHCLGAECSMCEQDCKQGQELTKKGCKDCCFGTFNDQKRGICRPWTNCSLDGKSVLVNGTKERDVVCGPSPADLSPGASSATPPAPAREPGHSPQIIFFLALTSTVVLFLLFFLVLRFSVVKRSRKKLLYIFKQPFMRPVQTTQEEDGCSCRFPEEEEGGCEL

Binder	NF-KB reporter activation, curve fit Bottom [1] [RLU]	NF-KB reporter activation, curve fit Top [1] [RLU]	Kd [2] [nM]	Response [2]	T1/2 Life [2] [min]	koff [2] [s⁻¹]	kon [2] [M⁻¹ s⁻¹]	EC50 [3] [µg/mL]	EC50 [4] [µg/mL]	NF-kB Stimulation (EC50) [5] [µg/mL]	EC50 [6] [µg/mL]	binding result [7]
B1	838	7190	40.6	0.12	2.1	0.00559	138000	–	–	–	–	–
B2	666	5940	40.4	0.137	1.9	0.00618	153000	–	–	–	–	–
B3	–	–	–	–	–	–	–	0.162	0.08	0.018	0.121	no binding
B4	879	4590	14	0.204	2.2	0.00523	373000	–	–	–	–	–
B5	–	–	–	–	–	–	–	0.392	0.233	0.026	0.341	no binding
B6	894	6730	41.9	0.138	2	0.00578	138000	–	–	–	–	–
B7	625	4170	15.3	0.181	1.8	0.00652	426000	–	–	–	–	–
B8	592	3920	10.4	0.175	2.5	0.00467	449000	–	–	–	–	–
